This note sets out measurements from publication PMC10931652, “Recombinant Rod Domain of Vimentin Reduces SARS-CoV-2 Viral Replication by Blocking Spike Protein–ACE2 Interactions” (International Journal of Molecular Sciences, 2024).

This assay has as its target T1, recombinant spike S1S2 extracellular domain of SARS-CoV-2 (S1S2ECD-His) (SARS-CoV-2, UniProt P0DTC2 14-1213, IRDye 800CW NHS ester label (as the probe of the peptide array only)).
T1 construct: also called SARS-CoV-2 spike protein; S1S2 protein
Description: BLI; S1S2ECD-His amine-coupled on AR2G sensors (10 µg/mL in 10 mM sodium acetate pH 4); rhRod in solution, 8 concentrations a run; Octet Red384; KD by non-linear regression of the steady-state response. To be noted: both partners purified. Background: In BLI a coated tip is dipped into the sample, and binding shifts an interference pattern.

B1: recombinant rod domain of vimentin (rhRod) (domain or fragment)
chain: not shown
modifications: IRDye 800CW NHS ester label (as the probe of the peptide array only)
notes: also called rhRod-1 to rhRod-7 (lots)
One may read the Kd as the concentration at which binding is half-saturated. With B1, the dissociation constant Kd came to 163 nM.
